Test results reported in US12295987B2, “Method of using a GIP/GLP1 co-agonist for diabetes” (Eli Lilly and Company, priority 2018, dated 2025).

Biological target: T1, human gastric inhibitory peptide receptor (hGIPR) (Homo sapiens, UniProt P48546)
T1 construct: expressed in transfected cells; host or cells: HEK293
T1 sequence (P48546 22-466): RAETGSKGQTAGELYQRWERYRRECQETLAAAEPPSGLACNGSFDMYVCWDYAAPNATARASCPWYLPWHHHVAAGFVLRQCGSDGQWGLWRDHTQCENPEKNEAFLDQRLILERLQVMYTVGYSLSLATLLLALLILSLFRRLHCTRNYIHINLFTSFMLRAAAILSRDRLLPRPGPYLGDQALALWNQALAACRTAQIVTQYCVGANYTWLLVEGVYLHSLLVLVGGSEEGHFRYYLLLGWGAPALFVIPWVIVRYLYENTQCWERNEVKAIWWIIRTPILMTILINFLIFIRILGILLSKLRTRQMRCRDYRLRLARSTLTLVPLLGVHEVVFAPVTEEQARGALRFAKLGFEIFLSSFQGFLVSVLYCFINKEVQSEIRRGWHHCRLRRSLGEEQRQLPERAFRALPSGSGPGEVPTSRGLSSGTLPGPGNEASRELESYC
Test: cAMP pharmacological functional assay in presence of 0.1% casein, hGIPR
Format: cell-based
Conditions: ratio of hGIPR to hGLP1R cAMP EC50 ratios

Substance | [hGIPR/hGLP1R] EC50 Ratio
Y-Aib-EGT-αMeF-TSDYSI-αMeL-LDKK((2-[2-(2-Amino-ethoxy)-ethoxy]-acetyl)2-(γGlu)-CO—(CH2)18—CO2H)AQ-Aib-AFIEYLIEAGPSSGAPPPS-NH2 (YXEGTXTSDYSIXLDKKAQXAFIEYLIEAGPSSGAPPPS; Aib, αMeF, αMeL; acylated lysine C20 diacid; amide; (2)..(2) Xaa at position 2 is Aib; (6)..(6) Xaa at position 6 is alpha-methyl-Phe; (13)..(13) Xaa at position 13 is alpha-methyl-Leu; MOD_RES (17)..(17) Lys at position 17 is chemically modified by conjugation of the epsilon-amino group of the Lys side chain with (2-[2-(2-amino-ethoxy)-ethoxy]-acetyl)2-(gamma-Glu)-CO-(CH2)18- CO2H; (20)..(20) Xaa at position 20 is Aib; MOD_RES (39)..(39) Ser at po) [Peptide 126] | 2.91
Y-Aib-EGT-αMeF(2F)-TSD-4Pal-SI-αMeL-LD-Dab-K((2-[2-(2-Amino-ethoxy)-ethoxy]-acetyl)2-(γGlu)-CO—(CH2)16—CO2H)AQ-Aib-EFI-(D-Glu)-YLIEGGPSSGAPPPS-NH2 (YXEGTXTSDXSIXLDXKAQXEFIXYLIEGGPSSGAPPPS; Aib, 4Pal, Dab, lipidated Lys, D-Glu, C-terminal amide; (2)..(2) Xaa at position 2 is Aib; (6)..(6) Xaa at position 6 is alpha-methyl-Phe(2F); (10)..(10) Xaa at position 10 is 4Pal; (13)..(13) Xaa at position 13 is alpha-methyl-Leu; (16)..(16) Xaa at position 16 is Dab; MOD_RES (17)..(17) Lys at position 17 is chemically modified by conjugation of the epsilon-amino group of the Lys side chain with (2-[2-(2-amino-ethoxy)-ethoxy]-acetyl)2-(gamma-Glu)-CO-) [Peptide 233] | 9.25
Y-Aib-EGT-αMeF-TSDHSILLDKK((2-[2-(2-Amino-ethoxy)-ethoxy]-acetyl)2-(γGlu)-CO—(CH2)18—CO2H)AQ-Aib-AFIEYLIEGGPSSGAPPPS-NH2 (YXEGTXTSDHSILLDKKAQXAFIEYLIEGGPSSGAPPPS; Aib, αMeF; acylated lysine C20 diacid; amide; (2)..(2) Xaa at position 2 is Aib; (6)..(6) Xaa at position 6 is alpha-methyl-Phe; MOD_RES (17)..(17) Lys at position 17 is chemically modified by conjugation of the epsilon-amino group of the Lys side chain with (2-[2-(2-amino-ethoxy)-ethoxy]-acetyl)2-(gamma-Glu)-CO-(CH2)18- CO2H; (20)..(20) Xaa at position 20 is Aib; MOD_RES (39)..(39) Ser at position 39 is amidated) [Peptide 128] | 3.51
Y-Aib-EGT-αMeF(2F)-TSDYSI-αMeL-LDEK((2-[2-(2-Amino-ethoxy)-ethoxy]-acetyl)2-(γGlu)-CO—(CH2)18—CO2H)AQ-Aib-EFIVYLIEGGPSSGAPPPS-NH2 (YXEGTXTSDYSIXLDEKAQXEFIVYLIEGGPSSGAPPPS; Aib, αMeF(2F), αMeL; acylated lysine C20 diacid; amide; (2)..(2) Xaa at position 2 is Aib; (6)..(6) Xaa at position 6 is alpha-methyl-Phe(2F); (13)..(13) Xaa at position 13 is alpha-methyl-Leu; MOD_RES (17)..(17) Lys at position 17 is chemically modified by conjugation of the epsilon-amino group of the Lys side chain with (2-[2-(2-amino-ethoxy)-ethoxy]-acetyl)2-(gamma-Glu)-CO-(CH2)18- CO2H; (20)..(20) Xaa at position 20 is Aib; MOD_RES (39)..(39) Ser a) [Peptide 149] | 3.76
